Assay results taken from publication PMC9482650, “Quantitative fragmentomics allow affinity mapping of interactomes” (Nature Communications, 2022).
Values belong to the binder of their own block, whether it stands above or below them.

Columns and labels:
Test in all cases: holdup assay
Parameters in all cases: key: below the threshold = too weak to quantify, mostly under pKd 3.1 to 4
APBA1_1, Q02410 = target: T1, APBA1_1, Q02410
T1 sequence (Q02410 651-752, limits assumed, looked up): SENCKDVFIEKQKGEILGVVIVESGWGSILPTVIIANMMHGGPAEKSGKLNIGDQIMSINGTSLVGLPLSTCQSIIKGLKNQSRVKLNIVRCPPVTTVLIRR

CASK, O14936 = target: CASK, O14936
Sequence of CASK, O14936 (O14936 487-570): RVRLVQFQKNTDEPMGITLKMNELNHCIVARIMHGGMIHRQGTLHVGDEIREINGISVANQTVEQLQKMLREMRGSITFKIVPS

DLG3_3, Q92796 = target: T2, DLG3_3, Q92796
T2 sequence (Q92796 374-475, limits assumed, looked up): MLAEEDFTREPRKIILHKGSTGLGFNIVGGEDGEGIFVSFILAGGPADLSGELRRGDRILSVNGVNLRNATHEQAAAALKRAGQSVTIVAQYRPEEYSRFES

FRMPD3, Q5JV73 = target: FRMPD3, Q5JV73
Sequence of FRMPD3, Q5JV73 (Q5JV73 12-100): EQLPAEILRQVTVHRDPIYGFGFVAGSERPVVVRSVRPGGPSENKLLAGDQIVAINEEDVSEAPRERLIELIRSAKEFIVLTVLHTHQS

GOPC, Q9HD26 = target: GOPC, Q9HD26
GORASP2, Q9H8Y8 = target: GORASP2, Q9H8Y8
GRID2IP_1, A4D2P6 = target: GRID2IP_1, A4D2P6
Sequence of GRID2IP_1, A4D2P6 (A4D2P6 1-87): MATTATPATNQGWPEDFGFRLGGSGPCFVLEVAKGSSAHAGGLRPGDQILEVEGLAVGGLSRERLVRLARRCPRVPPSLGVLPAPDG

GRID2IP_2, A4D2P6 = target: GRID2IP_2, A4D2P6
Sequence of GRID2IP_2, A4D2P6 (A4D2P6 272-370): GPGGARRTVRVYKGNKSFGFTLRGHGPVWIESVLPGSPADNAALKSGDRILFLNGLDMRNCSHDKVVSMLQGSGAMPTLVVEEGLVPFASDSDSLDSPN

HTRA2, O43464 = target: HTRA2, O43464
Sequence of HTRA2, O43464 (O43464 355-458): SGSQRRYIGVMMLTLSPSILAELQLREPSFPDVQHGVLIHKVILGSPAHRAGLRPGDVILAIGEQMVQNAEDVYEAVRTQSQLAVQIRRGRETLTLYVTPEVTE

IL16_4, Q14005 = target: IL16_4, Q14005
Sequence of IL16_4, Q14005 (Q14005 1229-1329): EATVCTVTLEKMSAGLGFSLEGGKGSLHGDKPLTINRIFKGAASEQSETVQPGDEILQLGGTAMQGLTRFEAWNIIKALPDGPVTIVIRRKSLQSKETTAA

Inadl_3, Q8NI35 = target: Inadl_3, Q8NI35
Sequence of Inadl_3, Q8NI35 (Q8NI35 359-469): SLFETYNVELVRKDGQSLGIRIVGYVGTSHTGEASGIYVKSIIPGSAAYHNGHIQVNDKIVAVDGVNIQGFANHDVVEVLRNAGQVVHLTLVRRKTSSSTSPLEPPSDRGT

Inadl_9, Q8NI35 = target: Inadl_9, Q8NI35
Sequence of Inadl_9, Q8NI35 (Q8NI35 1530-1615): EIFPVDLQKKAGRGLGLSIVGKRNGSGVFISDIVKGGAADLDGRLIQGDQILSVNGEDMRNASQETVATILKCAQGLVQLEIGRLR

LIMK2, P53671 = target: LIMK2, P53671
Sequence of LIMK2, P53671 (P53671 143-248): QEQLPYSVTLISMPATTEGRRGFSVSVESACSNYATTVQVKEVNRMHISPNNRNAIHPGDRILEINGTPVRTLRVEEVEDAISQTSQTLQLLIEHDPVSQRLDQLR

LNX1_2, Q8TBB1 = target: LNX1_2, Q8TBB1
Sequence of LNX1_2, Q8TBB1 (Q8TBB1 371-470): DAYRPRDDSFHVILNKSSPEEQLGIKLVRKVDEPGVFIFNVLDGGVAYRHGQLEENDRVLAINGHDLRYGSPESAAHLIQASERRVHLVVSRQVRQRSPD

LNX1_3, Q8TBB1 = target: LNX1_3, Q8TBB1
Sequence of LNX1_3, Q8TBB1 (Q8TBB1 500-596): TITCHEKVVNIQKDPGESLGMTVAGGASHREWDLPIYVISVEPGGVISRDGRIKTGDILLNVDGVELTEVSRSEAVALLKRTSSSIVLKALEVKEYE

LNX2_2, Q8N448 = target: T3, LNX2_2, Q8N448
T3 sequence (Q8N448 334-432, limits assumed, looked up): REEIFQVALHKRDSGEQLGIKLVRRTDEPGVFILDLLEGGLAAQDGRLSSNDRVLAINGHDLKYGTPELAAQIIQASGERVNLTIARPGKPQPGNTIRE

MAGI2_3, Q86UL8 = target: MAGI2_3, Q86UL8
Sequence of MAGI2_3, Q86UL8 (Q86UL8 600-682): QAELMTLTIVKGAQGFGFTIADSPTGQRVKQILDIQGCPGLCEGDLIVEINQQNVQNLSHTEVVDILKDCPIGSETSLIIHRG

MAGI2_4, Q86UL8 = target: MAGI2_4, Q86UL8
Sequence of MAGI2_4, Q86UL8 (Q86UL8 772-865): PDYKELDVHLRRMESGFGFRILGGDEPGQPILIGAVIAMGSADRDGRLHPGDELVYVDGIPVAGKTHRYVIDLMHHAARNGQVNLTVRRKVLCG

MAST1, Q9Y2H9 = target: MAST1, Q9Y2H9
Sequence of MAST1, Q9Y2H9 (Q9Y2H9 962-1065): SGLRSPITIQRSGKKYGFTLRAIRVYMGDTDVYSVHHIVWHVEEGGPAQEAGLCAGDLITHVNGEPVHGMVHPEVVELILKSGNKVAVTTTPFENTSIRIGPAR

MAST2, Q6P0Q8 = target: MAST2, Q6P0Q8
Sequence of MAST2, Q6P0Q8 (Q6P0Q8 1099-1202): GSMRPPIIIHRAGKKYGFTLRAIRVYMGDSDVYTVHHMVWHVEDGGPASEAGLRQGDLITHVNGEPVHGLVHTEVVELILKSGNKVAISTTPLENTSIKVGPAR

NHERF4_2, Q86UT5 = target: NHERF4_2, Q86UT5
Sequence of NHERF4_2, Q86UT5 (Q86UT5 220-308): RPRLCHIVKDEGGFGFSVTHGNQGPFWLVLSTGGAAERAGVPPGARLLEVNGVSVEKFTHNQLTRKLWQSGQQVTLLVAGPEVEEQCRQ

PDZD7_3, Q9H5P4 = target: T4, PDZD7_3, Q9H5P4
T4 sequence (Q9H5P4 857-944, limits assumed, looked up): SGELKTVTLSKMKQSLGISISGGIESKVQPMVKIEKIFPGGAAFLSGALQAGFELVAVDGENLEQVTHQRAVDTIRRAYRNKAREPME

PDZRN3_1, Q9UPQ7 = target: T5, PDZRN3_1, Q9UPQ7
T5 sequence (Q9UPQ7 244-349, limits assumed, looked up): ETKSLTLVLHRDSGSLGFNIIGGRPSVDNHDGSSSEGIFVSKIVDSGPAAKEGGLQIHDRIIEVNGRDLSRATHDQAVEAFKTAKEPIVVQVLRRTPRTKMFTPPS

PDZRN4_1, Q6ZMN7 = target: PDZRN4_1, Q6ZMN7
Sequence of PDZRN4_1, Q6ZMN7 (Q6ZMN7 213-318): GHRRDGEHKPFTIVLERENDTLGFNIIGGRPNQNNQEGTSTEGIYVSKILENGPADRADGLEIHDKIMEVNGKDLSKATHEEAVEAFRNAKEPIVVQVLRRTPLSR

RADIL, Q96JH8 = target: T6, RADIL, Q96JH8
T6 sequence (Q96JH8 971-1071, limits assumed, looked up): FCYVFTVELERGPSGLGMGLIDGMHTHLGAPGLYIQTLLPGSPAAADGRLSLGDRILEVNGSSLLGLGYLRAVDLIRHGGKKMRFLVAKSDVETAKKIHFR

RHPN1, Q8TCX5 = target: T7, RHPN1, Q8TCX5
T7 sequence (Q8TCX5 508-602, limits assumed, looked up): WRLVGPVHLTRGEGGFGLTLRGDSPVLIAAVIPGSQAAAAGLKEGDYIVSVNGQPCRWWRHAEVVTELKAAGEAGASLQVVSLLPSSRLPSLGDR

SNTG2, Q9NY99 = target: T8, SNTG2, Q9NY99
T8 sequence (Q9NY99 68-166, limits assumed, looked up): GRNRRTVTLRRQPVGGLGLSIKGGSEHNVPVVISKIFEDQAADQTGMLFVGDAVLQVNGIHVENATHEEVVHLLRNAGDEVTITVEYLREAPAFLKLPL

TJP1_2, Q07157 = target: TJP1_2, Q07157
Sequence of TJP1_2, Q07157 (Q07157 181-274): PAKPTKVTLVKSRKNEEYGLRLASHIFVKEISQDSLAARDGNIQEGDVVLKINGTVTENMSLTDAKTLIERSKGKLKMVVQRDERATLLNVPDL

TJP2_1, Q9UDY2 = target: TJP2_1, Q9UDY2
Sequence of TJP2_1, Q9UDY2 (Q9UDY2 24-128): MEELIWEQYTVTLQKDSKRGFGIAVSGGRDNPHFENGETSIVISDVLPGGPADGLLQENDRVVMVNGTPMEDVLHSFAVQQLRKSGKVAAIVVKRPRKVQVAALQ

[1] = plain residues with an end cap or a label only (N-terminal biotin on a linker: ahx)
[2] = plain residues with an end cap or a label only (N-terminal biotin on a linker: ttds)
[3] = plain residues with an end cap or a label only (N-terminal biotin on a linker: ado-ado)

pKd (APBA1_1, Q02410; [1]): below the threshold
pKd (CASK, O14936; [1]): below the threshold
pKd (DLG3_3, Q92796; [1]): below the threshold
pKd (FRMPD3, Q5JV73; [1]): 4.7
pKd (GOPC, Q9HD26; [1]): below the threshold
pKd (GORASP2, Q9H8Y8; [1]): 3.57
pKd (GRID2IP_1, A4D2P6; [1]): below the threshold
pKd (GRID2IP_2, A4D2P6; [1]): below the threshold
pKd (HTRA2, O43464; [1]): below the threshold
pKd (IL16_4, Q14005; [1]): below the threshold
pKd (Inadl_3, Q8NI35; [1]): 3.89
pKd (Inadl_9, Q8NI35; [1]): below the threshold
pKd (LIMK2, P53671; [1]): below the threshold
pKd (LNX1_2, Q8TBB1; [1]): below the threshold
pKd (LNX1_3, Q8TBB1; [1]): below the threshold
pKd (LNX2_2, Q8N448; [1]): below the threshold
pKd (MAGI2_3, Q86UL8; [1]): below the threshold
pKd (MAGI2_4, Q86UL8; [1]): 3.51
pKd (MAST1, Q9Y2H9; [1]): 4.52
pKd (MAST2, Q6P0Q8; [1]): 5.3
pKd (NHERF4_2, Q86UT5; [1]): below the threshold
pKd (PDZD7_3, Q9H5P4; [1]): 3.64
pKd (PDZRN3_1, Q9UPQ7; [1]): below the threshold
pKd (PDZRN4_1, Q6ZMN7; [1]): below the threshold
pKd (RADIL, Q96JH8; [1]): 3.78
pKd (RHPN1, Q8TCX5; [1]): 4.11
pKd (SNTG2, Q9NY99; [1]): below the threshold
pKd (TJP1_2, Q07157; [1]): below the threshold
pKd (TJP2_1, Q9UDY2; [1]): below the threshold
Binder: KEYDDELTFF [USH1C, Q9Y6N9]

pKd (APBA1_1, Q02410; [2]): below the threshold
pKd (CASK, O14936; [2]): below the threshold
pKd (DLG3_3, Q92796; [2]): 4.77
pKd (FRMPD3, Q5JV73; [2]): below the threshold
pKd (GOPC, Q9HD26; [2]): 3.6
pKd (GORASP2, Q9H8Y8; [2]): below the threshold
pKd (GRID2IP_1, A4D2P6; [2]): below the threshold
pKd (GRID2IP_2, A4D2P6; [2]): 3.69
pKd (HTRA2, O43464; [2]): below the threshold
pKd (IL16_4, Q14005; [2]): below the threshold
pKd (Inadl_3, Q8NI35; [2]): below the threshold
pKd (Inadl_9, Q8NI35; [2]): below the threshold
pKd (LIMK2, P53671; [2]): below the threshold
pKd (LNX1_2, Q8TBB1; [2]): below the threshold
pKd (LNX1_3, Q8TBB1; [2]): below the threshold
pKd (LNX2_2, Q8N448; [2]): below the threshold
pKd (MAGI2_3, Q86UL8; [2]): below the threshold
pKd (MAGI2_4, Q86UL8; [2]): below the threshold
pKd (MAST1, Q9Y2H9; [2]): 4.56
pKd (MAST2, Q6P0Q8; [2]): 4.88
pKd (NHERF4_2, Q86UT5; [2]): below the threshold
pKd (PDZD7_3, Q9H5P4; [2]): 4.89
pKd (PDZRN3_1, Q9UPQ7; [2]): 4.37
pKd (PDZRN4_1, Q6ZMN7; [2]): 4.57
pKd (RADIL, Q96JH8; [2]): below the threshold
pKd (RHPN1, Q8TCX5; [2]): 3.92
pKd (SNTG2, Q9NY99; [2]): 4.32
pKd (TJP1_2, Q07157; [2]): below the threshold
pKd (TJP2_1, Q9UDY2; [2]): below the threshold
Binder: PSRDRKETSI [RALBP1, Q15311]

pKd (APBA1_1, Q02410; [3]): below the threshold
pKd (CASK, O14936; [3]): below the threshold
pKd (DLG3_3, Q92796; [3]): below the threshold
pKd (FRMPD3, Q5JV73; [3]): below the threshold
pKd (GOPC, Q9HD26; [3]): below the threshold
pKd (GORASP2, Q9H8Y8; [3]): below the threshold
pKd (GRID2IP_1, A4D2P6; [3]): below the threshold
pKd (GRID2IP_2, A4D2P6; [3]): below the threshold
pKd (HTRA2, O43464; [3]): below the threshold
pKd (IL16_4, Q14005; [3]): below the threshold
pKd (Inadl_3, Q8NI35; [3]): below the threshold
pKd (Inadl_9, Q8NI35; [3]): below the threshold
pKd (LIMK2, P53671; [3]): below the threshold
pKd (LNX1_2, Q8TBB1; [3]): below the threshold
pKd (LNX1_3, Q8TBB1; [3]): below the threshold
pKd (LNX2_2, Q8N448; [3]): below the threshold
pKd (MAGI2_3, Q86UL8; [3]): below the threshold
pKd (MAGI2_4, Q86UL8; [3]): below the threshold
pKd (MAST1, Q9Y2H9; [3]): 4.67
pKd (MAST2, Q6P0Q8; [3]): 5.51
pKd (NHERF4_2, Q86UT5; [3]): below the threshold
pKd (PDZD7_3, Q9H5P4; [3]): below the threshold
pKd (PDZRN3_1, Q9UPQ7; [3]): below the threshold
pKd (PDZRN4_1, Q6ZMN7; [3]): below the threshold
pKd (RADIL, Q96JH8; [3]): below the threshold
pKd (RHPN1, Q8TCX5; [3]): 3.55
pKd (SNTG2, Q9NY99; [3]): below the threshold
pKd (TJP1_2, Q07157; [3]): below the threshold
pKd (TJP2_1, Q9UDY2; [3]): below the threshold
Binder: EKPIDSETKM [SLC1A3, P43003]
